Assay [1] concerns the target T1, full-length glucagon receptor purified from Sf9 membranes (Homo sapiens, UniProt P47871).
T1 construct: glucagon receptor (GCGR), full-length construct; the small molecule NNC0640 was present throughout; also called full-length GCGR; GCGR; source: Sf9 membranes, solubilised in DDM/CHS, purified (talon resin), exchanged into lauryl maltose neopentyl glycol
Briefly: negative-stain EM (random conical tilt 3D maps); purified GCGR in lauryl maltose neopentyl glycol mixed with mAb23 Fab, complex isolated by size exclusion chromatography, stained with 2% uranyl formate. As to conditions: both partners purified. (In general: In gel filtration, larger molecules generally elute earlier.)

In the next assay the test system is GCGR. As to conditions: cited from earlier work.
Assay [2] deals with T2, full-length glucagon receptor (GCGR), purified from Sf9 membranes for EM (Homo sapiens, UniProt P47871).
T2 construct: glucagon receptor (GCGR), human, called the full-length construct; also called full-length GCGR; full-length construct
The experiment in a line: negative-stain electron microscopy map (random conical tilt); mAb23 Fab mixed with detergent-purified GCGR (lauryl maltose neopentyl glycol, NNC0640), complex isolated by size exclusion chromatography; 2% uranyl formate stain; about 0.01 uM protein. The settings on record: both partners purified.

T1 sequence (P47871 26-477): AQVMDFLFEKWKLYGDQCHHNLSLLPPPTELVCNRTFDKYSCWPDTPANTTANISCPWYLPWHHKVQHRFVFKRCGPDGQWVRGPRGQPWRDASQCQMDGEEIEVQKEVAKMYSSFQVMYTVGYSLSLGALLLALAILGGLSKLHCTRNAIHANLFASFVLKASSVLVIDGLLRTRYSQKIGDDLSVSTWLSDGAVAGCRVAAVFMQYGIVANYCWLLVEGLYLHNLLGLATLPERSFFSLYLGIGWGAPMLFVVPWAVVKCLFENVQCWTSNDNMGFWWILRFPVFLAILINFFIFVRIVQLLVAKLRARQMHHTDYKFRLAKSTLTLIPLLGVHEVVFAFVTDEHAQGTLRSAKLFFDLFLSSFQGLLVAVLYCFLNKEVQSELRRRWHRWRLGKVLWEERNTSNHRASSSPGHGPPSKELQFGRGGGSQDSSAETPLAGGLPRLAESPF
T2 sequence (P47871 26-477): as above

B1: antigen-binding fragment (Fab) of the monoclonal antibody mAb23 (Fab, V domains shown)
VH: EVQLVESGGGLVQPGGSLRLSCAASGFNIYYNYIHWVRQAPGKGLEWVAEFSPYSGSTYYADSVKGRFTISADTSKNTAYLQMNSLRAEDTAVYYCARSAAIVDWYDYFKGFDYWGQGTLVTVSS
VL: DIQMTQSPSSLSASVGDRVTITCRASQSVSSAVAWYQQKPGKAPKLLIYSASSLYSGVPSRFSGSRSGTDFTLTISSLQPEDFATYYCQQYGSYLYTFGQGTKVEIK
notes: The alignment numbers light chain 1-215 and heavy chain 216-443 in one run; also called mAb23 Fab; source: kindly provided by Genentech
For B1, the binding result in assay [1] is on record as “binds”.

B2: mAb23: monoclonal antibody that interacts with the ECD of GCGR; Fab kindly provided by Genentech (antibody, V domains shown)
VH: EVQLVESGGGLVQPGGSLRLSCAASGFNIYYNYIHWVRQAPGKGLEWVAEFSPYSGSTYYADSVKGRFTISADTSKNTAYLQMNSLRAEDTAVYYCARSAAIVDWYDYFKGFDYWGQGTLVTVSS
VL: DIQMTQSPSSLSASVGDRVTITCRASQSVSSAVAWYQQKPGKAPKLLIYSASSLYSGVPSRFSGSRSGTDFTLTISSLQPEDFATYYCQQYGSYLYTFGQGTKVEIK
For the molecule B2, in the assay on GCGR, the “effect on glucagon binding to the receptor” value is reported as “preventing glucagon from binding to the receptor”.

B3: antigen-binding fragment (Fab) of the monoclonal antibody mAb23 (Fab, V domains shown)
VH: EVQLVESGGGLVQPGGSLRLSCAASGFNIYYNYIHWVRQAPGKGLEWVAEFSPYSGSTYYADSVKGRFTISADTSKNTAYLQMNSLRAEDTAVYYCARSAAIVDWYDYFKGFDYWGQGTLVTVSS
VL: DIQMTQSPSSLSASVGDRVTITCRASQSVSSAVAWYQQKPGKAPKLLIYSASSLYSGVPSRFSGSRSGTDFTLTISSLQPEDFATYYCQQYGSYLYTFGQGTKVEIK
notes: Related to mAb1, whose Fab is in PDB 4ERS (cited); also called mAb23 Fab; source: kindly provided by Genentech
B3: in assay [2], the binding result is on record as “binds”.

These data come from paper PMC4532856 (Nature Communications, 2015).
